Usually Kd stands for the free concentration of one partner at which half of the binding sites on the other are occupied at equilibrium, for simple one-to-one binding. Broadly, the koff is a measure of how fast the partners let go of each other. Low values mean slow dissociation, high ones fast dissociation. The term kon denotes the rate constant with which the complex forms. High values mean fast association, low ones slow association.

These results are taken from patent CN109879966A (PERSONGEN BIOMEDICINE SUZHOU CO LTD, dated 2019).

The target in the assay is T1, CD19 (Biacore ligand coupled to the chip) (UniProt P15391 20-291, limits assumed).
T1 construct: also called 配体:CD19
T1 sequence (looked up): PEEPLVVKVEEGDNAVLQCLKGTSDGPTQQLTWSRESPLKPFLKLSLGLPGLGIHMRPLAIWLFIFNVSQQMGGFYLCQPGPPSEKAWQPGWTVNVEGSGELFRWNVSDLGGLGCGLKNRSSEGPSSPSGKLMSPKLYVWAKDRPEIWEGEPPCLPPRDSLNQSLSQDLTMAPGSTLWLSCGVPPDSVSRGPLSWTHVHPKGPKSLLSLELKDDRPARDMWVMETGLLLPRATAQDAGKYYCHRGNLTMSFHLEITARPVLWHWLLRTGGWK
Description: Biacore SPR, CD19 coupled to chip, antibody as analyte 3.125-100 ug/ml. In general terms: In SPR one partner is held on a chip, and binding of the other changes the refractive index at the surface.

B1: HM1711091-T1L1H4 (antibody, V domains shown)
VH: QVQLQESGPGLVAPSETLSLTCTVSGVSLPDYGVSWIRQPPRKGLEWIGVIWGSETTYYNSALKSRVTISVDTSKNQFSLKLSSVTAADTAVYYCAKHYYYGGSYAMDYWGQGTLVTVSS
VL: DIQMTQSPSSLSASVGDRVTITCRASQDISKYLNWYQQKPGKAPKLLIYHTSRLHSGVPSRFSGSGSGTDFTFTISSLQPEDIATYYCQQGNTLPYTFGGGTKVEI
notes: Full antibody (全抗) used in the Biacore assay; also called 人源化单抗T1L1H4; 人源化T1L1H4抗体
Molecule B1 came in with a Kd of 15.9 nM, a koff of 0.00441 s⁻¹ and a kon of 278000 M⁻¹ s⁻¹.

B2: HM1711091-T4L2H2 (antibody, V domains shown)
VH: QVTLRESGPALVKPTQTLTLTCTFSGVSLPDYGVSWIRQPPGKALEWLAVIWGSETTYYNSALKSRLTISKDTSKNQVVLTMTNMDPVDTATYYCAKHYYYGGSYAMDYWGQGTTVTVSS
VL: EIVLTQSPATLSLSPGERATLSCRASQDISKYLNWYQQKPGQAPRLLIYHTSRLHSGIPDRFSGSGSGTDFTLTISRLEPEDIAVYYCQQGNTLPYTFGQGTKLEI
notes: Full antibody (全抗) used in the Biacore assay; also called 人源化单抗T4L2H2; 人源化T4L2H2抗体
B2: the Kd amounted to 28.4 nM, the koff worked out at 0.0028 s⁻¹ and the kon amounted to 98600 M⁻¹ s⁻¹.
